# Experimental data published in PMC3561323 (PLoS ONE, 2013).
# Target: integrin linked kinase (ILK), full-length human (human, UniProt Q13418 1-452)
# Test: SEC; purified IPPmin complex on a calibrated gel-filtration column (Superdex 200 10/300 GL); 20 mM Tris pH 7.5, 150 mM NaCl, 1 mM DTT
# Details: both partners purified
# Sequence of integrin linked kinase (ILK), full-length human (Q13418 whole entry): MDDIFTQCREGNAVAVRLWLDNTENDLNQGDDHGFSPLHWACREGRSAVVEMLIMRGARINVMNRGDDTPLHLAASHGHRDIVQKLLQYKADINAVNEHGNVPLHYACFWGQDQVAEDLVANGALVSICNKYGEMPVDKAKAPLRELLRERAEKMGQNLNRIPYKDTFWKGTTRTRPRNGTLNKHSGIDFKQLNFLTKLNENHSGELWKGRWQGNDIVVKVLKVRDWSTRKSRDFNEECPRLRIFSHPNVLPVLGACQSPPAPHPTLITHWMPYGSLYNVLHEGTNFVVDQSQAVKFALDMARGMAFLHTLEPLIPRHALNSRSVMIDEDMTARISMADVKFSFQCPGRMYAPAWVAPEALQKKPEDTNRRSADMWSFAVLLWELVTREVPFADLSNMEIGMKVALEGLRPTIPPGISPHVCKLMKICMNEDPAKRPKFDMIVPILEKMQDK
binder,measurement,value
"LIM1 domain of PINCH1 (domain or fragment, human, UniProt P48059 6-68, looked up) ASATCERCKGGFAPAEKIVNSNGELYHEQCFVCAQCFQQFPEGLFYEFEGRKYCEHDFQMLFA",binding result,binds
